Results as given in patent publication US20140322161A1, “ANTI-IL-6 VACCINE COMPOSITION” (PEPTINOV SAS, priority 2011, published 2014).
Bridges are numbered along the chain shown (N, C = ends). BDB = bisdiazonium-benzidine, coupling agent to KLH; Gluta = glutaraldehyde, coupling agent to KLH

How the values were obtained:
[1] = target: T1, murine IL-6 (Mus musculus, UniProt P08505); assay: Murine IL-6 neutralization test on murine B9 hybridomas with purified IgGs from immunized rabbits; type: cell-based; settings: purified IgGs from rabbits immunized with the peptide; B9 hybridoma proliferation, XTT
T1 sequence (P08505 25-211): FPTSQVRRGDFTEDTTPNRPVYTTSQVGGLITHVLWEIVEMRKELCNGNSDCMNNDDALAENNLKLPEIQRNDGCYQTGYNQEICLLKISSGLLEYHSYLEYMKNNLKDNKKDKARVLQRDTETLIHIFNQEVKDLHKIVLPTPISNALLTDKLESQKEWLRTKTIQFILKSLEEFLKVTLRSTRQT
Protocol: The neutralizing ability of purified IgGs based on serum from rabbits immunized with the peptides mP1, mP2, mP3, mP4, mP5 and mP6 respectively, was tested in a murine IL-6 neutralization test. This test is based on the fact that murine B9 hybridomas proliferate in a dose-dependent manner in response to murine IL-6 (Brakenhoff et al. (1987) J. Immunol. 139:4116-21).
Plating (D0): seed a flat-bottom 96-well plate, treated for cell culture with 5000 cells per well in 50 μL of neutralization medium. (RPMI 1640 without phenol red, 5% v/v Foetal Calf Serum (FCS), 2 mM L-Glutamine, 100 U/mL Penicillin/Streptomycin, […] of β-Mercaptoethanol)
In parallel a so-called “pre-incubation” plate is produced with the desired concentration of murine IL-6, samples and commercial anti-mIL-6 antibodies used as positive control, all in a final volume of 100 μL of neutralization medium.
The pre-incubation plate is left at 37° C. for 2 hours. 50 μL per well is then transferred to the corresponding wells of the plate containing the cells, then the latter is incubated with 5% CO2 at 37° C. for 96 hours.
Development (D4): Add 50 μL of a solution of XTT (for 2,3-bis-(2-methoxy-4-nitro-5-sulfophenyl)-2H-tetrazolium-5-carboxanilide)—0.5% electron coupling reagent to each well. Leave to incubate at 37° C. for 7 hours. Reading of the optical density on a spectrophotometer set at 450 nm.

[2] = tested on: C57BL/6 mice; assay: Murine model of chronic colitis induced by DSS after vaccination; type: in vivo; settings: for histological colitis score: D67 colon distal biopsies, compared with control mice treated with PBS or KLH alone, FIG. 3; for disease activity index (DAI) / reduction of the length of the colon: DSS-treated C57BL/6 mice; for disease activity index (DAI): 100 μg peptide coupled with KLH, compared with the control groups, FIG. 2; for reduction of the length of the colon: compared with control mice, FIG. 4
Source text: Chronic colitis induced by Dextran Sodium Sulfate (DSS) is a well-known model of chronic inflammatory disease reproducing the main characteristics of the human diseases (Alex et al. (2009) Inflamm. Bowel Dis. 15:341-352).
Briefly, groups of 6 C57BL/6 mice (Charles River Laboratories, L'Arbresle, France) were formed. The mice were immunized 4 times (once with CFA and three times with IFA) every 15 days with different vaccine preparations. The mice were respectively immunized with PBS (DSS/PBS group), 50 μg per mouse of KLH (DSS/KLH group), and 100 μg per mouse of peptide mP1, mP2, mP3, mP4, mP5 and mP6 coupled with KLH (DSS/mIL-6 peptide group). A control H2O group was also included. Four days after the first booster, colitis was induced by absorption of Dextran Sodium Sulfate (DSS) in water (2%) over 7 days followed by 7 days of water. Three DSS/water cycles were thus carried out, after which the mice received water until the end of the protocol. The clinical signs of the disease appear approximately on the fifth day after the start of treatment with DSS (D26 of the protocol). The development of the disease is measured from the start of the first DSS cycle up to the end of the protocol by a disease activity index (DAI) including weight loss, the presence of blood in the stools and the texture of the stools. The clinical scores are determined as follows: for the texture of the stools a score of 0 (hard stools) to 4 (diarrhoea), for the presence of blood in the stools a score of 0 (absence) to 4 (macroscopic blood), and weight loss a score of 0 (<1%) to 4 (>20%). Each mouse is thus assigned a clinical score with a maximum score of 12.
Then, on D67, the mice are killed by cervical dislocation. The histological sections from colon distal biopsies are scored blind, according to the severity of the inflammation (0: absence, 1: slight, 2: moderate, 3: severe), the extent of the inflammation (0: absence, 1: mucosal, 2: mucosal and sub-mucosal, 3: transmural), crypt damage (0: absence, 1: one-third damaged, 2: ⅔ damaged, 3: only the surface of the epithelium intact, 4: total destruction of the crypts and epithelium). Each mouse is thus assigned a histological score with a maximum score of 10.

[3] = target: T2, hIL-6 (Homo sapiens, UniProt P05231); assay: Human IL-6 neutralization test on HEK293 cells (hIL-6 receptor, SEAP reporter) with purified IgGs from immunized rabbits; type: cell-based; settings: purified IgGs from rabbits immunized with 100 μg of the peptide
T2 sequence (P05231 30-212): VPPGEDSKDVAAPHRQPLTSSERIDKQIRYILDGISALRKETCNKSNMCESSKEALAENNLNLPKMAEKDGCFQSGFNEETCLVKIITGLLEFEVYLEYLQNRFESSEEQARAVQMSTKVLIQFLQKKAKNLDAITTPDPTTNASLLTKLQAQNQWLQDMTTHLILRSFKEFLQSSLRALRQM
Protocol: New Zealand rabbits free from specific pathogenic organisms (n=1 per peptide) were immunized with 100 μg of peptides hP1, hP2, hP3, hP4 and hP6 derived from human IL-6 by five immunizations with CFA/IFA on D0, D14, D28, D56 and J70. The neutralizing ability of the purified IgGs, derived from the serum of each rabbit, was tested in a human IL-6 neutralization test. This test is carried out on HEK293 cells (Human Embryonic Kidney cells) transfected with the gene encoding the human IL-6 receptor and the secreted embryonic alkaline phosphatase (SEAP) reporter gene (Supplier: Invivogen). The latter is then secreted in a dose-dependent manner in response to the human IL-6.
Plating (D0): seed a flat-bottom 96-well plate, treated for cell culture with 50,000 cells per well in 100 μL of neutralization medium. (DMEM 4.5 g/L glucose, 10% v/v FCS, 2 mM L-Glutamine, 100 U/mL Penicillin/Streptomycin, 100 μg/mL of Normocin).
In parallel a so-called “pre-incubation” plate is prepared with the desired concentration of human IL-6, rabbit antibodies and commercial anti-hIL-6 antibodies used as a positive control, all in a final volume of 200 μL of neutralization medium.
The pre-incubation plate is left at 37° C. for 2 hours. 100 μL per well is then transferred to the corresponding wells of the plate containing the cells, then the latter is incubated with 5% CO2 at 37° C. for 24 hours.
Development (D1): Fill a flat-bottom 96-well plate with 180 μL per well of QUANTI-Blue (InVivoGen, CA, USA). Add 20 μL of supernatant from the plate treated with IL-6. Incubate with 5% CO2 at 37° C. for 3 hours. Determine the quantity of secreted alkaline phosphatase using a spectrophotometer set at 620 nm.

[4] = target: T2, hIL-6; assay: ELISA of sera from Cynomolgus monkeys immunized with hP2 for anti hIL-6 antibodies; type: in vivo, Cynomolgus monkey
Protocol: Four Cynomolgus monkeys were immunized intra-muscularly at day 0 with 150 μg of the cyclized hP2 peptide derived from hIL-6 previously described coupled to the protein carrier KLH, and then emulsified with the ISA51 adjuvant (Seppic).
Boosts were performed at d15, d30, d45 with an additional boost at d76. Blood samples were collected every two weeks until the end of the experiment (d120). These sera were tested in ELISA to evaluate the production of anti hIL-6 antibodies. A control group of four monkeys immunized with KLH only was used.

[5] = tested on: Cynomolgus monkeys; assay: Delayed-type hypersensitivity against tetanus toxoid in immunized Cynomolgus monkeys; type: in vivo, Cynomolgus monkey; settings: tetanus toxoid challenge at d90, compared to the KLH group, FIG. 8
Protocol: Briefly, the TTx vaccine (Sanofi-Pasteur, solution of 0.5 ml comprising 40 IU of Tetanus Toxoid and 0.6 mg of aluminium hydroxide) was administered intramuscularly at d59 in the thigh. Then an intradermic challenge was performed at d90 in two injection sites in the back of the monkey.
Clinical features of the cutaneous reaction were evaluated once a day for each animal before the challenge and then 24 h, 48 h and 72 h after the challenge. Each injection site was monitored for the incidence, grade and duration of three parameters (erythema, thickening, nodules) and a cumulative clinical score of delayed-type hypersensitivity (DTH) comprising these three parameters was established for each group.

[6] = target: T3, IL-6Rα receptor (Homo sapiens, UniProt P08887); settings: adults; cited from earlier work
T3 sequence (P08887 20-468): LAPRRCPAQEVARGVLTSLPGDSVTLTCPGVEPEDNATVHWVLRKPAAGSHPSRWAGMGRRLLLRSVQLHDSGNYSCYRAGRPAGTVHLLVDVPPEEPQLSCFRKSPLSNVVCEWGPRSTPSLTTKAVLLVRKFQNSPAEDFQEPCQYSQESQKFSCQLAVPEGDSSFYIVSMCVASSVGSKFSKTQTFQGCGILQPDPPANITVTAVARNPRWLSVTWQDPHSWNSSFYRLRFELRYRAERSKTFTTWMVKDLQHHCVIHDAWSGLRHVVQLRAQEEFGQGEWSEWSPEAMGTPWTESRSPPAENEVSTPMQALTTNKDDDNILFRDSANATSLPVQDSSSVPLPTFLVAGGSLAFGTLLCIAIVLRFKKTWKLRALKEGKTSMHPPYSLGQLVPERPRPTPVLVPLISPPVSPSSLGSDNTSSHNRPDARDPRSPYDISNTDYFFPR

Row | Substance | neutralization of the biological activity of murine IL-6 [1] | histological colitis score [2] | disease activity index (DAI) [2] | reduction of the length of the colon [2] | neutralization of the biological activity of human IL-6 [3] | further results
1 | Gluta-C99YQTGYNQEIC109+Amide (Gluta-CYQTGYNQEIC-NH2; disulfide 1-11 (inferred)) [mP3, peptide derived from mIL-6 region 99-109] | neutralize the biological activity of murine IL-6 in a dose-dependent manner | significantly reduced histological score | significantly reduced disease activity index | significantly less severe reduction of the colon | – | –
2 | Acetyl+D176KCESQKEWLRTK188C-Y-BDB [mP6] | neutralize the biological activity of murine IL-6 in a dose-dependent manner | significantly reduced histological score | significantly reduced disease activity index | significantly less severe reduction of the colon | – | –
3 | Acetyl+C78ESSKEALAENNLNLPK94C-Y-BDB (Ac-CESSKEALAENNLNLPKCY-{BDB}; disulfide 1-18 (inferred); also: coupled to KLH via BDB) [hP2, peptide derived from hIL-6 region 78-94] | – | – | – | – | neutralize the biological activity of the human IL-6 in a dose-dependent manner | peak of anti-hIL-6 antibody titer kinetics ([4]; Cynomolgus monkeys immunized with hP2, in average): ~60 days; development of antibodies against hIL-6 (ELISA) ([4]; four Cynomolgus monkeys, 150 μg cyclized hP2 coupled to KLH in ISA51 i.m., FIG. 7): developed antibodies against hIL-6; DTH response (cumulative clinical score) [5]: marked attenuation of the DTH response
4 | BDB-Y-CE127FLQNRFESSEEQAR141C+ Amide ({BDB}-YCEFLQNRFESSEEQARC-NH2; disulfide 2-18 (inferred)) [hP4, peptide derived from hIL-6 region 127-141] | – | – | – | – | neutralize the biological activity of the human IL-6 in a dose-dependent manner | –
5 | Gluta-C101FQSGFNEETC111 +Amide (Gluta-CFQSGFNEETC-NH2; disulfide 1-11 (inferred)) [hP3, peptide derived from hIL-6 region 101-111] | – | – | – | – | neutralize the biological activity of the human IL-6 in a dose-dependent manner | –
6 | Tocilizumab: humanized monoclonal antibody directed against the IL-6Rα receptor | – | – | – | – | – | clinical effectiveness in rheumatoid arthritis [6]: clinically effective
7 | BDB-Y-CE125FMKNNLKDNKKDKAR140C+Amide [mP4] | neutralize the biological activity of murine IL-6 in a dose-dependent manner | significantly reduced histological score | significantly reduced disease activity index | significantly less severe reduction of the colon | – | –
8 | BDB-Y-G63ISALRKETCNKSNMC78+Amide ({BDB}-YGISALRKETCNKSNMC-NH2; disulfide 11-17 (inferred)) [hP1, peptide derived from hIL-6 region 63-78] | – | – | – | – | neutralize the biological activity of the human IL-6 in a dose-dependent manner | –
9 | BDB-Y-E61IVEMRKELCNGNSD75C+Amide ({BDB}-YEIVEMRKELCNGNSDC-NH2; disulfide 11-17 (inferred)) [mP1, peptide derived from mIL-6 region 61-75] | neutralize the biological activity of murine IL-6 in a dose-dependent manner | significantly reduced histological score | significantly reduced disease activity index | significantly less severe reduction of the colon | – | –
10 | Acetyl+CN154QEVKDLHKIVLPTP168C-Y-BDB [mP5] | do not neutralize the activity of murine IL-6 | – | – | – | – | –
11 | Acetyl +T177KCQAQNQWLQDM189C-Y-BDB (Ac-TKCQAQNQWLQDMCY-{BDB}; disulfide 3-14 (inferred)) [hP6, peptide derived from hIL-6 region 177-189] | – | – | – | – | neutralize the biological activity of the human IL-6 in a dose-dependent manner | –
